Measured values as given in the DeepSol protein solubility set.

Experiment: soluble on expression in E. coli; label from the status in PepcDB or PDB records

With “YDPSKDPSSSLARRNLIIGLMEKAGFITHAQAVRAKATPLVLHYTPVTQQGLAPYFTEYIRQTIKSSSMLEGVNVYRDGL” the “soluble on expression in E. coli” value was “not soluble”.
In the case of “GPLGSTSLVQGLTPPPDFNQCLKNSPDEKFFSDFSNNMGSRKNPDPLATEEVPNQEQIPEEGFIHTQYGQKPEQPSGASAGHRFPQGYHSDKRRLSKASSKARSDDLSV”, the “soluble on expression in E. coli” value is reported as “soluble”.
For “MQVLHVCSEMFPLLKTGGLADVIGALPAAQIADGVDARVLLPAFPDIRRGVTDAQVVSRRDTFAGHITLLFGHYNGVGIYLIDAPHLYDRPGSPYHDTNLFAYTDNVLRFALLGWVGAEMASGLDPFWRPDVVHAHDWHAGLAPAYLAARGRPAKSVFTVHNLAYQGMFYAHHMNDIQLPWSFFNIHGLEFNGQISFLKAGLYYADHITAVSPTYAREITEPQFAYGMEGLLQQRHREGRLSGVLNGVDEKIWSPETDLLLASRYTRDTLEDKAENKRQLQIAMGLKVDDKVPLFAVVSRLTSQKGLDLVLEALPGLLEQGGQLALLGAGDPVLQEGFLAAAAEYPGQVGVQIGYHEAFSHRIMGGADVILVPSRFAPCGLTQLYGLKYGTLPLVRRTGGLADTVSDCSLENLADGVASGFVFEDSNAWSLLRAIRRAFVLWSRPSLWRFVQRQAMAMDFSWQVAAKSYRELYYRLKLEHHHHHH”, the “soluble on expression in E. coli” value was “soluble”.
With “MGNIIRIGMADLKASHHPAILTTLGLGSCVGIALYDRTTKIVGLAHAMLPDSSQVKNKTNAAKFVDTAIELLVKEMLSLGASKKRIVAKLAGGAQMFTFTQGAELMRIGQRNVAAAKSKLESLDIPVVSEDTGGNYGRTVELDSESGMLLIRTIGYGTKQI” the “soluble on expression in E. coli” value was “not soluble”.
In the case of “MRIIEQDPWLRPYESVIESRLKYARKRETDLTGGRSGGLSDFANGHLYYGLHQDGDSWVIREFAPEATAVYLIGELSRWRRLPQFRFAPVDEAGSWELRLSCRLLPHGSRYRLFFEWPGGEGERIPAWCNRVEQDPETYLFYAQVWVPDTPYEMKHPHPNR”, the “soluble on expression in E. coli” value is reported as “not soluble”.
In the case of “MKFSTIFGATTVMTAVSAAAVSSVMTTKTITATNGNNVYTKVVTDTADPIISYSTTRTVVVSNSDATYTKVVTEGPDTTSEKSTTKTLTLTNGSGSSTNLYTKTVTQAVESSTSSSSSSSSSSSSASSSGAAPAAFQGASVGALALGLISYLL”, the “soluble on expression in E. coli” value is reported as “soluble”.
For “MGSDKIHHHHHHMKIAFDVDVIKDLGITRMVHQVAEWGYKYIEQSPHPQINPFYKHPRASREIMAEYKQALRDTGLELSSFICVYRWSGPDELRRQAAVKNWKRLVEIAVEMGVQVINTEFSGDPNQPEICDEMFYRSMEELLPIFEREGIRVEIQAHPWDFCEENNETVDIVKSFRSDNVKYVYSVPHTFFYDKGVGDVASMLRYAGSDLSHVLIADTRNHTKHCRYIVNPPGVDAVVHQHVGVGEGDVDFDALFRTLREMKFAEQTFKVGGAPIVATSLFGYPEKMKYQAVETRELIERELLRR”, the “soluble on expression in E. coli” value was “not soluble”.
For “HHHHDYDIPTTENLYFQGHMTIHKKGQAHWEGDIKRGKGTVSTESGVLNQQPYGFNTRFEGEKGTNPEELIGAAHAACFSMALSLMLGEAGFTPTSIDTTADVSLDKVDAGFAITKIALKSEVAVPGIDASTFDGIIQKAKAGCPVSQVLKAEITLDYQLKS”, the “soluble on expression in E. coli” value was “soluble”.
For “MKLIRGIHNLSQAPHGCVLTIGNFDGVHRGHRALLQGLQEEGRRRGLPVVVMIFEPQPLELFATDKAPARLTRLREKLHYLAQCGVDYVLCVKFDRRFAALTAQTFISELLVERLGVQFLAVGDDFRFGASRAGDFLLLQKAGAEYGFAVSSTQTFCEGGVRISSTAVRQALAEDNLALAESLLGHPFTISGRVVHGDELGRTIGFPTANLPLRRQVSPVKGVYAVEVTGLGDKPLPGVANIGTRPTVAGVRQQLEVHLLDVVMDLYGRHIDVILRKKIRNEQRFASLDELKAQIARDELTARKFFGLAGQV”, the “soluble on expression in E. coli” value was “not soluble”.
In the case of “MKYFEFTFHTSPCTETVNDVLAAVLGEAGFESFVESEGGLTAYIQQALCDENTIKNAITEFPLPDTEITYTYVEAEDKDWNEEWEKNFFQPIVIDNRCVIHSTFHKDVPQATYDIVINPQMAFGTGHHETTSLIIGELLDNELKDKSLLDMGCGTSILAILARMRGARPCIAIDIDEWCVRNSIENIELNHVDDIAVSQGDASSLVGKGPFDIIIANINRNILLNDMKQYVACMHPGSELYMSGFYVDDIPFIRREAEKNGLTFVHHKEKNRWAAVKFTY”, the “soluble on expression in E. coli” value is reported as “not soluble”.
With “MSLTSKPYIMGVDIGTSSTKAVLFNQRGEVIFRQATHYELITDETGKAEESPTEIFDAVLTSIQAVMKNINTEELAGISFSSAMHSLIMVGSNGELLTECITWADGRSSETLEKVKRDNYLFQLYEATGTPIHPMSPFAKICWLKEEKPTLFKRTEKFVDIKSYILYRLFGVWVMDESLASGTGLYNIMEHDWEFEAMEIVKLTPDFLPKVVPETYQLAGVKKEYAELMGIPENLPFIIGGSDGALANIGIQATGQNDVTITVGTSGAVRKLTDQFQIDSRGRTFCYGAGDGYFIAGGAVNNGGKVVEWGLQQFGSEAEISRRDFASFIAKIEEVPPGAAGLLFQPYLLGERAPFWTNDIRGGFVGLTINHTKAHFIRAILEGVAFNLAEVYEAVSAPDDIIYVTGGISAHDAWCKLLADILNREIRVPHTIEGSSLGAAIIGMRSLGILKDLNLKHTLPIKAVYHPSENVLKYAELRLIFKQVTTQLMSSYSQLNSWQKKFDINSEGHHHHHH” the “soluble on expression in E. coli” value was “soluble”.
For “MGSDKIHHHHHHMIQSYPVERSRTIQTRLVLPPDTNHLGTIFGGKVLAYIDEIAALTAMKHANSAVVTASIDSVDFKSSATVGDALELEGFVTHTGRTSMEVYVRVHSNNLLTGERTLTTESFLTMVAVDESGKPKPVPQVEPQTEEEKRLYETAPARKENRKKRAALR”, the “soluble on expression in E. coli” value was “soluble”.
In the case of “MIVGRDGVGVVEHAEQGPRIAVAVVTMGNRPAEVDALLASVAKQDLPPARIVIVGNGCPLPEFARRLDLPGEVTGIEVDENLGCPGGRNVALAKLREFGDVDVVVELDDDGLLVDADVLRRVRDLYAADPRLGIVGFRIADENGETQRRHVPRVGKSDPLRGGPVTGFLGGGHALSMAMLARTGDWPAEFFFAHEETDLAWRATDAGWTILYAPELLLQHPKTSPARHAIYHRVTARNRVWLARRRLPLPLIPVHLGIWIAVTLVRTRSAGGLRAWFGGFMEGVRTSGGERRPMRWRTVWRLTRLGRPPVILEHHHHHH”, the “soluble on expression in E. coli” value is reported as “not soluble”.
For “MSGRVGDLSPRQKEALAKFRENVQDVLPALPNPDDYFLLRWLRARSFDLQKSEAMLRKHVEFRKQKDIDNIISWQPPEVIQQYLSGGMCGYDLDGCPVWYDIIGPLDAKGLLFSASKQDLLRTKMRECELLLQECAHQTTKLGRKVETITIIYDCEGLGLKHLWKPAVEAYGEFLCMFEENYPETLKRLFVVKAPKLFPVAYNLIKPFLSEDTRKKIMVLGANWKEVLLKHISPDQVPVEYGGTMTDPDGNPKCKSKINYGGDIPRKYYVRDQVKQQYEHSVQISRGSSHQVEYEILFPGCVLRWQFMSDGADVGFGIFLKTKMGERQRAGEMTEVLPNQRYNSHLVPEDGTLTCSDPGIYVLRFDNTYSFIHAKKVNFTVEVLLPDKASEEKMKQLGAGTPK”, the “soluble on expression in E. coli” value was “soluble”.
With “MNNQQAAIASARSRMAAGGQPQGATPGQPDQNFDYMFKLLIIGNSSVGKTSFLFRYCDDSFTSAFVSTVGIDFKVKTVFRGDKRVKLQIWDTAGQERYRTITTAYYRGAMGFILMYDITNEESFNSVQDWCTQIKTYSWENAQVVLVGNKCDMDSERVVSMDRGRQLADQLGLEFFETSAKENINVKAVFEKLVEIICDKMAESLDKDPQQQPKGQKLEANPTQKPAQQQCNC” the “soluble on expression in E. coli” value was “not soluble”.
With “MGSDKIHHHHHHMIALKELKQYADLHVKTHSFQVINPRQVLQSIERAASEEPTAGGWDWQWVDAANKCLQANAIEDAIQCYNFARFPFPKTSLQQEAADRLTKVFEQAYCREDVQKHRVYYDNQKVTVYAANLHPDLPCLLVLGGIVSIKEQWSVFLQVGKRLGFSVLITECPGVGENQVRYHADSYRMIGQILDTFAGQAKVGDTYIVGMSFGGHLAMKQALHDERIKGITTVGAPLHYFFQDYSQLNVPFITQATLAHVMEEELDHVGRALSRFAFMPKELNKLKIPITYIFSSKDEIIPKSEKSFLLDNIANLTFYEFDDVHGSPNHLPLIQKIIPLSILKHSNSKRYFVRIMLAFLLTYNKWKGRDGKR” the “soluble on expression in E. coli” value was “not soluble”.
In the case of “YVWDTKMNVGLRVGAAAEFMIGSRGFYLAPGLNYTMKGSKTEWDIPEMVPGTYITMVSTRLHYLQLPINAGMRFDLMNDMAVSIEAGPFLAYGIYGTYRQKLEGWKPNNYSTEFFGPTLGGPTNIRWDIGANIIAAFHYKRYYIQIGYEHGFVDIVSGGGSDIPRLNDNRQSSSTTALREKGNNEYAYNRDFFVGIGYRF”, the “soluble on expression in E. coli” value is reported as “not soluble”.
